The text below walks through data of publication PMC4740771, “Nucleotide-dependent assembly of the peroxisomal receptor export complex” (Scientific Reports, 2016).

The target in data set [1] is Pex15p(1-315)His (GST removed by thrombin) (S. cerevisiae) (UniProt Q08215). Description: SEC; 700 kDa fractions of the Pex1/6p/Pex15p complexes pooled, kept 72 h on ice (4 °C), then size exclusion again; anti-His immunoblot, signal intensities.
Data set [2] has the same target. Description: SEC; Pex1/6p/Pex15p complex isolated on GSH-agarose, released by thrombin (GST left on the column), Superose 6 (small-scale and preparative) in presence of ATP; anti-His immunoblot or Coomassie, signal intensities by ImageJ.
Data set [3] has the same target. Description: SEC; as a8 but 2.5 mM ATPγS added during thrombin incubation of the wild-type complex.
Data set [4] addresses GST-Pex15p(1-315)His (S. cerevisiae) (UniProt Q08215). Description: pull-down; GST-Pex15p(1-315)His incubated with purified proteins, loaded on GSH-agarose, eluted with glutathione; 5 mM ATP; Coomassie and immunoblot, signal intensities of load and eluate.
Data set [5] concerns the target T1, Pex15p(1-315)His (GST removed by thrombin) (S. cerevisiae, UniProt Q08215 1-315).
T1 construct: Pex15p of S. cerevisiae, cytosolic part, residues 1 to 315; Same construct as m10 after thrombin cleavage; detected by anti-His antibodies; Printed mass 36 kDa; alone it eluted at about 100 kDa; also called Pex15pHis; source: E. coli BL21 (DE3), purified (Glutathione Agarose 4B), released from GSH-agarose by thrombin; not shown: GST, N-terminal, cleaved; His6, C-terminal, kept
T1 sequence (looked up): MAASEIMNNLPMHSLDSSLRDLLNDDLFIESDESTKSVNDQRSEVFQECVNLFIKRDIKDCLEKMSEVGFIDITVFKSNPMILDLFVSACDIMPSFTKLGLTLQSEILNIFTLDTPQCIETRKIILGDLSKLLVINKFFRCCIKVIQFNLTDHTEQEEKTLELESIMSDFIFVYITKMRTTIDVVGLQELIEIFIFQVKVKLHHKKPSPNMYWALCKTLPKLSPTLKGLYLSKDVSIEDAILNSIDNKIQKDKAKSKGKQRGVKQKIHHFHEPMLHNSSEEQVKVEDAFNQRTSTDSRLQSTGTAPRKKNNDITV
Description: SEC; Pex1/6p/Pex15p complex isolated on GSH-agarose, released by thrombin (GST left on the column), Superose 6 (small-scale and preparative) in presence of ATP; anti-His immunoblot or Coomassie, signal intensities by ImageJ. As to conditions: both partners purified.

For data set [6], the target named is T2, HisPex1p released from HisPex1pGST by thrombin (S. cerevisiae, UniProt P24004 1-1043).
T2 construct: Pex1p, type II AAA-ATPase peroxin of yeast; The GST tag held the complex on GSH-agarose during purification and stayed on the column after thrombin cleavage; source: E. coli Tuner (DE3), co-purified with HisPex6p (NiNTA-agarose, GSH-agarose, thrombin release); not shown: His6, N-terminal, kept; GST, C-terminal, cleaved
T2 sequence (looked up): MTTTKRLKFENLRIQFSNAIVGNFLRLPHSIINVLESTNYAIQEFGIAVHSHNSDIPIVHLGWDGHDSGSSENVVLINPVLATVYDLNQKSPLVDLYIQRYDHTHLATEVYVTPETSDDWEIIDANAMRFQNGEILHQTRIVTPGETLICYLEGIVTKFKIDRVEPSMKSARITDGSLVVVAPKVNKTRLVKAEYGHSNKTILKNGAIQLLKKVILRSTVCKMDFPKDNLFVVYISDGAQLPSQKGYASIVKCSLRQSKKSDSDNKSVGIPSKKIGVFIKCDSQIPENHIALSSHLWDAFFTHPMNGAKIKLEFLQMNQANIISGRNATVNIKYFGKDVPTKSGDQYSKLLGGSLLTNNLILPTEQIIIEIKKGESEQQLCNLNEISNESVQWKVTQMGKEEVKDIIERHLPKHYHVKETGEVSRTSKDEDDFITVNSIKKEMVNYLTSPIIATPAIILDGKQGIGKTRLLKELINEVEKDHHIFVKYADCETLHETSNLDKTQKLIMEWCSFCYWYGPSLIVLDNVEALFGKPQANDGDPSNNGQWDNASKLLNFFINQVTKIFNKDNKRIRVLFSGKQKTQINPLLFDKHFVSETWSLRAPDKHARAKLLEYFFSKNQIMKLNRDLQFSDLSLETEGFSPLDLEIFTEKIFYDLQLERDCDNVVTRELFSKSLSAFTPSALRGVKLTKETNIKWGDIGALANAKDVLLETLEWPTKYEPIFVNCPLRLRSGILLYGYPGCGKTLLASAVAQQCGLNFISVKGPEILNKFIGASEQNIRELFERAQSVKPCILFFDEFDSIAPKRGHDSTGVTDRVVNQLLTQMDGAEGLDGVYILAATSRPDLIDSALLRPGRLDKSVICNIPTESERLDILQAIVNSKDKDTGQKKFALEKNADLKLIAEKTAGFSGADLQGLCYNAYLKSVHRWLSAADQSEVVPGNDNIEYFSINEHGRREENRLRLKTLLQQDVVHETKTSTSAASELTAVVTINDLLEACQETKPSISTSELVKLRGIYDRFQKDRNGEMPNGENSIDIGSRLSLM
The data set is described as above. The settings on record: both partners purified.

Data set [7] concerns the molecule itself. Description: SEC; second gel filtration of the purified heterohexameric complexes after incubation at 37 °C.

In data set [1], “Pex1/6pWB complex (wild-type Pex1p with Pex6p E832Q), P24004 1-1043; P33760 1-1030” showed a percent of Pex15p still bound after 72 h of 40%. The stoichiometry N (Pex15p per Pex1p of the complex) in data set [2] was found to be 0.9.

Take “Pex1/6p-complex (recombinant heterohexameric AAA-complex), P24004 1-1043; P33760 1-1030”: the percent of Pex15p still bound after 72 h was 20% in data set [3] and less than 10% in data set [1]. For the same molecule, the fold binding against single Pex6p in data set [4] turned out to be 3 fold. Further, in data set [2], the stoichiometry N (Pex15p per Pex1p of the complex) was 0.9. For the same molecule, in data set [2] (scale: Pex15p per heterohexameric Pex1/6p complex), the stoichiometry N is 3.

B1: HisPex6p(E832Q) (natural protein, S. cerevisiae, UniProt P33760 1-1030, looked up)
chain: MKASLTFSLSGIYAPCSISRDIYLEYGDKKAECLYGTIRLPQYGPGCTPGKIVHCVLDDSLPFCSIVVPSKLFGFMPTQPTMDFCYFEPILDNVVPVLDSVTFLINEQLYSKLMDLPQEMQQIQFLHYKYNINSMETVVHSRDILTSGLCQILNCSPFPQGLVDFTETQLILVNDTEQKLSALKYANEDEEYALPKIGTNSALSIDLESLPCTISRDLLRPAPHINDDNSIYAFTDAETLLRLDVTSGSFITVSNMGCVRLVKLFVLLLPNGFKKRTIYAPPKIIASFPDCSVVTISKSNIGHTDIPIANQVFISRVGGWLQSQKCFQNIILTTLKKFFSESKRILCQNDLIPIAFDSSMADLNIAEENDESDDEDELGQYYKNDSLVWFFVTSAELDCFSKDNSHFIIDPNRTKLITTNITNRRPLPLSRSNLQRYYGFAETFYYDLHIFPYVRQLVNILETSFNCSQRGITLNASVLLHSTTNNVGKATMVRFASKYLGIHLLEIDCLSLTSNSRQLDSTSKIIGYIRAKCENVLPYASPAVIFLAHLDSILLDVNANQDPEAIKLQKSINFEMSKLLDDFTFKFPGTTFVGSVNNIDNVPSSFRSHMRFEILVPVPSEAQRLRIFQWYLSSHELNRDVQQKVPVSYMDNISFSSLSSYSAGLTPLDIKSIVETARMTATARFYQESKKCGWLPQSILITQEDLSKATSKARNEFSVSIGAPQIPNVTWDDIGGIDFVKGEILDTIDMPLKHPELFTSGMKKRSGILFYGPPGTGKTLMAKAIATNFSLNFFSVKGPELLNMYIGESEANVRRVFQKAREAKPCVIFFDQIDSVAPKRGNQGDSGGVMDRIVSQLLAELDGMSTDADGVFVIGATNRPDLLDEALLRPGRFDKLLYLGIPDTDTKQLNILEALTRKFVLDNDVKLIELAKLCPFNYTGADFYALCSDAMLNAMSRIARMVEKKVSQHNELTGENISTRRWFDKIATKEDTKVVVKMEDFLKAQEQLTPSVSRAELNHYEAVRANFEGA
notes: Pex6p of yeast with the Walker B mutation of the D2 domain; also called Pex6pWB; PEX6WB^E832Q; source: E. coli Tuner (DE3), co-purified with HisPex1pGST; not shown: His6, N-terminal, kept
Consider B1, for which the “stoichiometry N” value is 1 Pex15p per Pex6p in data set [5] and 0.9 Pex6p per Pex1p in data set [6].

B2: HisPex1p(D797N) released from its GST fusion (natural protein, S. cerevisiae, UniProt P24004 1-1043, looked up)
chain: MTTTKRLKFENLRIQFSNAIVGNFLRLPHSIINVLESTNYAIQEFGIAVHSHNSDIPIVHLGWDGHDSGSSENVVLINPVLATVYDLNQKSPLVDLYIQRYDHTHLATEVYVTPETSDDWEIIDANAMRFQNGEILHQTRIVTPGETLICYLEGIVTKFKIDRVEPSMKSARITDGSLVVVAPKVNKTRLVKAEYGHSNKTILKNGAIQLLKKVILRSTVCKMDFPKDNLFVVYISDGAQLPSQKGYASIVKCSLRQSKKSDSDNKSVGIPSKKIGVFIKCDSQIPENHIALSSHLWDAFFTHPMNGAKIKLEFLQMNQANIISGRNATVNIKYFGKDVPTKSGDQYSKLLGGSLLTNNLILPTEQIIIEIKKGESEQQLCNLNEISNESVQWKVTQMGKEEVKDIIERHLPKHYHVKETGEVSRTSKDEDDFITVNSIKKEMVNYLTSPIIATPAIILDGKQGIGKTRLLKELINEVEKDHHIFVKYADCETLHETSNLDKTQKLIMEWCSFCYWYGPSLIVLDNVEALFGKPQANDGDPSNNGQWDNASKLLNFFINQVTKIFNKDNKRIRVLFSGKQKTQINPLLFDKHFVSETWSLRAPDKHARAKLLEYFFSKNQIMKLNRDLQFSDLSLETEGFSPLDLEIFTEKIFYDLQLERDCDNVVTRELFSKSLSAFTPSALRGVKLTKETNIKWGDIGALANAKDVLLETLEWPTKYEPIFVNCPLRLRSGILLYGYPGCGKTLLASAVAQQCGLNFISVKGPEILNKFIGASEQNIRELFERAQSVKPCILFFNEFDSIAPKRGHDSTGVTDRVVNQLLTQMDGAEGLDGVYILAATSRPDLIDSALLRPGRLDKSVICNIPTESERLDILQAIVNSKDKDTGQKKFALEKNADLKLIAEKTAGFSGADLQGLCYNAYLKSVHRWLSAADQSEVVPGNDNIEYFSINEHGRREENRLRLKTLLQQDVVHETKTSTSAASELTAVVTINDLLEACQETKPSISTSELVKLRGIYDRFQKDRNGEMPNGENSIDIGSRLSLM
notes: Pex1p of yeast with a mutation of the aspartate of the Walker B motif of the D2 domain; also called Pex1WB^D797N; Pex1pWB^D797N; not shown: His6, N-terminal, kept; GST, C-terminal, cleaved
For B2, in data set [7], the “stoichiometry N” value amounted to 3.
